Reference: paper PMC5839545

Key:
[1] = target: mCherry-(s)-CENP-N (human) (UniProt Q96H22); experiment: dual color fluorescence cross-correlation spectroscopy (DC-FCCS); EGFP and mCherry fusion proteins co-expressed in living interphase HEp-2 or U2OS cells; spots in the nucleoplasm free of kinetochores, focal volume bleached before; 37°C; 488 and 561 nm; corrected values are the measured ones times about two
[2] = target: Spc24/Spc25 137-197+129-224 (Homo sapiens) (UniProt Q8NBT2); conditions: cited from earlier work
[3] = target: mCherry-(s)-CENP-I (human) (UniProt Q92674); experiment: dual color fluorescence cross-correlation spectroscopy (DC-FCCS); EGFP and mCherry fusion proteins co-expressed in living interphase HEp-2 or U2OS cells; spots in the nucleoplasm free of kinetochores, focal volume bleached before; 37°C; 488 and 561 nm; corrected values are the measured ones times about two
[4] = target: mCherry-(s)-CENP-K (human) (UniProt Q9BS16); experiment: as above
[5] = target: CENP-I-(s)-mCherry (human) (UniProt Q92674); experiment: as above
CENP-I-(s)-mCherry (human), sequence (Q92674 whole entry): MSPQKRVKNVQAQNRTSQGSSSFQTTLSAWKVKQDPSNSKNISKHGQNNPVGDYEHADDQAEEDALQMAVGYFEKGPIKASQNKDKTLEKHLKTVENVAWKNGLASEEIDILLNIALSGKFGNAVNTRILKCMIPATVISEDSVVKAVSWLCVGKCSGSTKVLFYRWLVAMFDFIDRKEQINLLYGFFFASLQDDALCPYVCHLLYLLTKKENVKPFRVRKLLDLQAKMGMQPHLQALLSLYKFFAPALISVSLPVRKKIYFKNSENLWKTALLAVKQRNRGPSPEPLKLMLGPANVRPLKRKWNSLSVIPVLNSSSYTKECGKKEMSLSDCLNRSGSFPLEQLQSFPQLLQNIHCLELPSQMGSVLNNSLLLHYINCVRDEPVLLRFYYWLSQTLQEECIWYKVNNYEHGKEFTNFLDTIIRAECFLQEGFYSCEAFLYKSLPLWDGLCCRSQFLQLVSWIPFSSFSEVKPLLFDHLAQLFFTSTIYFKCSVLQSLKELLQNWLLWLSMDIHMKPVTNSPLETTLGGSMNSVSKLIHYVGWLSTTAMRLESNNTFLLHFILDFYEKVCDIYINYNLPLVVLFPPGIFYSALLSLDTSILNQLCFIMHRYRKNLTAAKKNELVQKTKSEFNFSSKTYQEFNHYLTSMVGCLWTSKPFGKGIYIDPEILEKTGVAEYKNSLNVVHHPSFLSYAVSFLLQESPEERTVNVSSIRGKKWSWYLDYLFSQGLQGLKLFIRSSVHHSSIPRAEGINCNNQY

mCherry-(s)-CENP-K (human), sequence (Q9BS16 whole entry): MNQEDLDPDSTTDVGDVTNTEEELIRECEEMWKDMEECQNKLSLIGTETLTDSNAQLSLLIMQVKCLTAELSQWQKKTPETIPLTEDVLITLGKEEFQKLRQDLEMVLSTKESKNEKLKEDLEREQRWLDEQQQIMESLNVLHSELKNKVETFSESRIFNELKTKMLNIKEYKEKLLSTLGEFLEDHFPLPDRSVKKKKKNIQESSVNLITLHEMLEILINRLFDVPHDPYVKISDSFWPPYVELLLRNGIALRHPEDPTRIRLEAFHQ
EGFP-(l)-CENP-M, sequence (Q9NSP4 whole entry): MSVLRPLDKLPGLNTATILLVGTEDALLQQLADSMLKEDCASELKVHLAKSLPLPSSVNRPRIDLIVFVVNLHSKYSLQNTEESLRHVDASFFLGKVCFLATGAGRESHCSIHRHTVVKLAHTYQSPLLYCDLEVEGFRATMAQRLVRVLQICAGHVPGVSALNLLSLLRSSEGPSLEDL
mCherry-(s)-CENP-I (human), sequence (Q92674 whole entry, the tested form may be a part): as the sequence (Q92674 whole entry) above
mCherry-(s)-CENP-N (human), sequence (Q96H22 whole entry, the tested form may be a part): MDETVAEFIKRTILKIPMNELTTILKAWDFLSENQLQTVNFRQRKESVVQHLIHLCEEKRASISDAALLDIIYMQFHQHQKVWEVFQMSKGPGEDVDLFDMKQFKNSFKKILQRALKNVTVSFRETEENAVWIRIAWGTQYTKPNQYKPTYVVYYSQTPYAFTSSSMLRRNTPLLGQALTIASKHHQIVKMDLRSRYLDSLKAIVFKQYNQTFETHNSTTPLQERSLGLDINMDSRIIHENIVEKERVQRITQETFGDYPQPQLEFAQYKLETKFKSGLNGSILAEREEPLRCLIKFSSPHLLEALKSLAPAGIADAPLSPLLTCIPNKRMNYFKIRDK
EGFP-(l)-CENP-L, sequence (Q8N0S6 whole entry): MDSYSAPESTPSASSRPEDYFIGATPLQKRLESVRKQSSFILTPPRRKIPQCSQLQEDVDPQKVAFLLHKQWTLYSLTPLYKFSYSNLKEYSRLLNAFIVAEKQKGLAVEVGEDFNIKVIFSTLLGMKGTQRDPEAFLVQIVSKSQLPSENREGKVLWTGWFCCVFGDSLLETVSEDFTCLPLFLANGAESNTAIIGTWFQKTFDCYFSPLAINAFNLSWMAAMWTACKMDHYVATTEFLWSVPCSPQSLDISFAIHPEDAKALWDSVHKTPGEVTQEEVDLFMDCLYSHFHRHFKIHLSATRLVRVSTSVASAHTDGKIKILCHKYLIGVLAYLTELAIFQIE
Spc24/Spc25 137-197+129-224 (Homo sapiens), sequence (Q8NBT2 whole entry, chain 1 of 2, the tested form may be a part): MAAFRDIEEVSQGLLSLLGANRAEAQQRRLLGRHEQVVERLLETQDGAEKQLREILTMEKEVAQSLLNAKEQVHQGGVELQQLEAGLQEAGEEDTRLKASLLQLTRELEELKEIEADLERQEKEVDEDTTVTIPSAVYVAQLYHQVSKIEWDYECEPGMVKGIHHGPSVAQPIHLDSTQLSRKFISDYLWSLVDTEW
Spc24/Spc25 137-197+129-224 (Homo sapiens), sequence (Q9HBM1 whole entry, chain 2 of 2, further chain, the tested form may be a part): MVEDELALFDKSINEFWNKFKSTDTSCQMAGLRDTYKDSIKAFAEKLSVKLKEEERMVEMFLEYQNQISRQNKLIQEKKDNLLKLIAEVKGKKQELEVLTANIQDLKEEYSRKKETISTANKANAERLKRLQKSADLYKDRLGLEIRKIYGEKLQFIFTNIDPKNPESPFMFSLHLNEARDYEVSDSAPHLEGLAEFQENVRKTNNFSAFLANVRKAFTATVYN
CENP-T 76-106, sequence (Q96BT3 76-106): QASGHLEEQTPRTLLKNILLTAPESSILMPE

Q: With “CENP-K-(s)-EGFP (from UniProt Q9BS16 1-269) (natural protein)” as the substance, how does the cross-correlation, measured (%) [1] read?
A: The cross-correlation, measured (%) was 26%.

Q: Which Kd [2] does the source give for CENP-T 76-106 (from UniProt Q96BT3) here?
A: Its Kd is 645 nM.

Q: Which cross-correlation, measured (%) [1] does the source give for “EGFP-(l)-CENP-L (from UniProt Q8N0S6 1-344) (natural protein; other documents disagree on this pair)” here?
A: Its cross-correlation, measured (%) is 23%.

Q: For “EGFP-(l)-CENP-M (from UniProt Q9NSP4 1-180) (natural protein)”, which cross-correlation, measured (%) [3] is on record?
A: The cross-correlation, measured (%) was 24%.

Q: What about the co-migration in one cell (%) [4] of the same substance?
A: Its co-migration in one cell (%) is 49%.

Q: And the cross-correlation, corrected (%) [4]?
A: The cross-correlation, corrected (%) was 56 to 92%.

Q: What about the cross-correlation, measured (%) [4] of the same substance?
A: The cross-correlation, measured (%) was 37%.

Q: For “EGFP-(s)-CENP-H (from UniProt Q9H3R5 1-247) (natural protein)”, which cross-correlation, measured (%) [5] is on record?
A: The cross-correlation, measured (%) was 22%.

Q: For “EGFP-(s)-CENP-K (from UniProt Q9BS16 1-269) (natural protein)”, which cross-correlation, measured (%) [3] is on record?
A: The cross-correlation, measured (%) was 20%.
